Test results published in patent US6793917 (SHIONOGI, dated 2004).

T1: CCR4 expressed on 293/EBNA-1 cells (human, UniProt P51679 1-360)
T1 construct: whole, on cells; also called CCR4 receptor
T1 sequence (looked up): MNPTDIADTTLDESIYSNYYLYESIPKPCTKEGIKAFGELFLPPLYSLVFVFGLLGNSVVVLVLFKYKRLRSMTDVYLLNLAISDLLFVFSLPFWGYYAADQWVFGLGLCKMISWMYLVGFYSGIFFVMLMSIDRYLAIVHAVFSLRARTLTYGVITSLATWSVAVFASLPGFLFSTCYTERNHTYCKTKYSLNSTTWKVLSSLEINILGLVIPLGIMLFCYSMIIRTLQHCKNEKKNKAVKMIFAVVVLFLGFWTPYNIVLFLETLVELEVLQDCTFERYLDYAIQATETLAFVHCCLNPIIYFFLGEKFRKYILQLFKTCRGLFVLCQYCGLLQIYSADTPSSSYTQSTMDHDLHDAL

T2: Duffy antigen/receptor for chemokine (DARC) on erythrocytes (UniProt Q16570 1-336)
T2 construct: whole, on cells
T2 sequence (looked up): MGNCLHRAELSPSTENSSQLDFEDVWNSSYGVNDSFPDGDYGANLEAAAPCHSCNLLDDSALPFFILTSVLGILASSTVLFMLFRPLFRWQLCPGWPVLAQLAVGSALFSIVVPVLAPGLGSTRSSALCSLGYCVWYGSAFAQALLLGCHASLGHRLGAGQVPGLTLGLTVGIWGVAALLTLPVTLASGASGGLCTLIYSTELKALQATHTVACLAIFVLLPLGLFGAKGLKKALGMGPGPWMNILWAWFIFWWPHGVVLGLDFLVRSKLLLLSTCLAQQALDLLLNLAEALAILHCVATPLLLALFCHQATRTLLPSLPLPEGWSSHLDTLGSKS


Tests used:
[1] = target: T1, CCR4 expressed on 293/EBNA-1 cells; assay: displacement of 1 nM TARC-SEAP from 4x10^5 293/EBNA-1 cells expressing CCR4 by unlabeled TARC
Experimental: The binding experiment was conducted in 200 μl RPMI-1640 containing 20 mM HEPES (pH 7.4), 1% BSA, and 0.02% sodium azide. […] Cells were washed and dissolved in 50 μl 10 mM Tris-HCl (pH 8.0) containing 1% Triton X-100, and treated at 65° C. for 10 minutes to inactivate the phosphatase originated from the cells. After centrifugation, the AP activity in 25 μl of the supernatant was measured. The nonspecific binding was measured using 1 nM SEAP.

[2] = target: T3, receptor for TARC on Jurkat cell and certain other T-cells; assay: displacement of 2 nM 125I-labeled TARC from Jurkat cells by unlabeled TARC, Scatchard analysis
T3 construct: also called TARC receptor; receptors for TARC

[3] = target: T2, Duffy antigen/receptor for chemokine …; assay: displacement of 0.66 nM 125I-labeled TARC from 10^8 erythrocytes by unlabeled TARC, Scatchard analysis
Excerpt: It has been known that erythrocyte expresses a Duffy antigen/receptor for chemokine (DARC) to which various chemokines can be bound.

[4] = target: T3, receptor for TARC on Jurkat cell and …; assay: saturation binding of 125I-labeled TARC to Jurkat cells, Scatchard analysis
Excerpt: To determine the binding constant and the number of receptor, conditions under which the binding reaches equilibrium were examined.

| IC50 [1] [nM] | Kd [2] [nM] | Kd [3] [nM] | Kd [4] [nM] | Binder |
| --- | --- | --- | --- | --- |
| ~3 | 2.1 | 17 |  | human TARC (Thymus and Activation-Regulated Chemokine), mature secreted form, expressed in and purified from insect cells (ligand, also called hTARC; unlabeled TARC) ARGTNVGRECCLEYFKGAIPLRKLKTWYQTSEDCSRDAIVFVTVQGRAICSDPNNKRVKNAVKYLQSLERS |
|  |  |  | 2.1 | 125I-labeled human TARC (ligand, 125I label introduced with 125I-labeled Bolton-Hunter reagent (site not stated), specific activity 81.6 uCi/ug) ARGTNVGRECCLEYFKGAIPLRKLKTWYQTSEDCSRDAIVFVTVQGRAICSDPNNKRVKNAVKYLQSLERS |
